Results reported in patent US20230035403A1 (Janssen / Centocor, published 2023).

B1: P59 9-mer NMVENGCYL (peptide)
peptide: NMVENGCYL
notes: 9-mer fragment of neoantigen P59; synthetic peptide
B2: P77 9-mer FFKRAAEGF (peptide)
peptide: FFKRAAEGF
notes: 9-mer fragment of neoantigen P77 (AR-V3); synthetic peptide
B3: P16 9-mer STRRAVRRM (peptide)
peptide: STRRAVRRM
notes: 9-mer fragment of neoantigen P16 (MSMB-NCOA4 fusion); synthetic peptide
B4: P35 9-mer NSKMALNSL (peptide)
peptide: NSKMALNSL
notes: 9-mer fragment of neoantigen P35; synthetic peptide
B5: P37 9-mer GVLRRLLCR (peptide)
peptide: GVLRRLLCR
notes: 9-mer fragment of neoantigen P37; synthetic peptide
B6: P27 9-mer FPVGAEGTF (peptide)
peptide: FPVGAEGTF
notes: 9-mer fragment of neoantigen P27; synthetic peptide
B7: P50 9-mer IQYSCMGLM (peptide)
peptide: IQYSCMGLM
notes: 9-mer fragment of neoantigen P50; synthetic peptide

Tests used:
Test in all cases: UV-induced peptide exchange, HLA class I ELISA; Pos peptide = 100%;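 note: Streptavidin-captured biotinylated HLA class I complexes detected by HRP-conjugated anti-human B2M antibody, absorbance readout of intact complex amount after exchange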
HLA-A*03:01 = target: T1, HLA-A*03:01 (human, biotinylated heavy chain)
T1 construct: Conditional HLA class I complex whose UV-labile peptide is exchanged for the test peptide
Description: (§1) The exchange efficiency between the peptide of interest and Pos was analyzed using an HLA class I ELISA.
(§2) The HLA class I ELISA is an enzyme immunoassay based on the detection of beta2-microglobulin (B2M) of (peptide-stabilized) HLA class I complexes. To this end streptavidin was bound onto polystyrene microtiter wells. After washing and blocking, HLA complex present in exchange reaction mixtures or ELISA controls was captured by the streptavidin on the microtiter plate via its biotinylated heavy chain. Non-bound material was removed by washing. Subsequently, horseradish peroxidase (HRP)-conjugated antibody to human B2M was added. […] In the latter case B2M was removed during the washing step. After removal of non-bound HRP conjugate by washing, a substrate solution was added to the wells. A coloured product formed in proportion to the amount of intact HLA complex present in the samples. After the reaction was terminated by the addition of a stop solution, absorbance was measured in a microtiter plate reader.

HLA-B*07:02 = target: T2, HLA-B*07:02 (human, biotinylated heavy chain)
T2 construct: Conditional HLA class I complex whose UV-labile peptide is exchanged for the test peptide
Description: as §1, §2

HLA-A*01:01 = target: T3, HLA-A*01:01 (human, biotinylated heavy chain)
T3 construct: Conditional HLA class I complex whose UV-labile peptide is exchanged for the test peptide
Description: as §1, §2

HLA-A*24:02 = target: T4, HLA-A*24:02 (human, biotinylated heavy chain)
T4 construct: Conditional HLA class I complex whose UV-labile peptide is exchanged for the test peptide
Description: as §1, §2

HLA-A*02:01 = target: T5, HLA-A*02:01 (human, biotinylated heavy chain)
T5 construct: Conditional HLA class I complex whose UV-labile peptide is exchanged for the test peptide
Description: as §1, §2

Binder | exchange rate with Pos peptide (HLA-A*03:01) [%] | exchange rate with Pos peptide (HLA-B*07:02) [%] | exchange rate with Pos peptide (HLA-A*01:01) [%] | exchange rate with Pos peptide (HLA-A*24:02) [%] | exchange rate with Pos peptide (HLA-A*02:01) [%]
B1 | 4.5 | 7.5 | 2.2 | -0.5 | 11.9
B2 | 2.8 | 14.2 | 1.9 | 1.7 | 
B3 | 6.1 | 13.7 | 5.5 | 0.8 | 10.4
B4 | 4.2 | 12.1 | 2.5 | 0.2 | 12.5
B5 | 6.4 |  | 1.4 | -0.1 | 12.5
B6 | 4.5 | 7.8 | 4.8 | 0.7 | 10
B7 | 5.5 | 10.4 | 2.3 | 0.1 | 8.8
